# T1: caspase-9 (Homo sapiens, UniProt P55211)
# T1 construct: endogenous in cells; host or cells: 293T
# T1 sequence (P55211 1-416): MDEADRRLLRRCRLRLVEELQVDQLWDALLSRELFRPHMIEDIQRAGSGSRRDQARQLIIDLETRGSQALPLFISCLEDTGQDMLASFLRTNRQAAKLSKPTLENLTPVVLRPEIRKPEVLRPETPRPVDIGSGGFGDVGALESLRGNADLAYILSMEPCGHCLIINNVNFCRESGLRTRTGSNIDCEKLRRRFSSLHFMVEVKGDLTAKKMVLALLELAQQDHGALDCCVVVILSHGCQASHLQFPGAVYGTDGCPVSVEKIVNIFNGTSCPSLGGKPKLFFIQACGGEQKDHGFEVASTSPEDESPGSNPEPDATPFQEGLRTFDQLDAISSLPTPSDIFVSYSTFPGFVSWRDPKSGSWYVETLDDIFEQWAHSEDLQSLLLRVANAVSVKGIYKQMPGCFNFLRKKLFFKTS
# B1: IRF3: IRF3 polypeptide expressed from expression vector; candidate gene of the 19q13.3 amplicon (protein, UniProt Q14653 1-427, looked up)
# Interferon regulatory factor 3: MGTPKPRILPWLVSQLDLGQLEGVAWVNKSRTRFRIPWKHGLRQDAQQEDFGIFQAWAEATGAYVPGRDKPDLPTWKRNFRSALNRKEGLRLAEDRSKDPHDPHKIYEFVNSGVGDFSQPDTSPDTNGGGSTSDTQEDILDELLGNMVLAPLPDPGPPSLAVAPEPCPQPLRSPSLDNPTPFPNLGPSENPLKRLLVPGEEWEFEVTAFYRGRQVFQQTISCPEGLRLVGSEVGDRTLPGWPVTLPDPGMSLTDRGVMSYVRHVLSCLGGGLALWRAGQWLWAQRLGHCHTYWAVSEELLPNSGHGPDGEVPKDKEGGVFDLGPFIVDLITFTEGSGRSPRYALWFCVGESWPQDQPWTKRLVMVKVVPTCLRALVEMARVGGASSLENTVDLHISNSHPLSLTSDQYKAYLQDLVEGMDFQGPGES
# B2: Bcl2L12-ΔBH2ΔP-rΔIHD: V5 tagged truncation mutant of human Bcl2L12, human amino acid sequence 1-167 (protein)
# chain: MGRPAGLFPPLCPFLGFRPEACWERHMQIERAPSVPPFLRWAGYRPGPVRRRGKVELIKFVRVQWRRPQVEWRRRRWGPGPGASMAGSEELGLREDTLRVLAAFLRRGEAAGSPVPTPPRSPAQEEPTDFLSRLRRCLPCSLGRGAAPSESPRPCSLPIRPCYGLEP
# modifications: left off: small tags and cut ends
# B3: R-RAS: R-RAS polypeptide over-expressed from expression vector; candidate gene of the 19q13.3 amplicon (protein, UniProt P10301 1-215, looked up)
# Ras-related protein R-Ras: MSSGAASGTGRGRPRGGGPGPGDPPPSETHKLVVVGGGGVGKSALTIQFIQSYFVSDYDPTIEDSYTKICSVDGIPARLDILDTAGQEEFGAMREQYMRAGHGFLLVFAINDRQSFNEVGKLFTQILRVKDRDDFPVVLVGNKADLESQRQVPRSEASAFGASHHVAYFEASAKLRLNVDEAFEQLVRAVRKYQEQELPPSPPSAPRKKGGGCPC
# B4: Bcl2L12-ΔBH2ΔP-r: V5 tagged truncation mutant of human Bcl2L12, human amino acid sequence 1-267 (protein)
# chain: MGRPAGLFPPLCPFLGFRPEACWERHMQIERAPSVPPFLRWAGYRPGPVRRRGKVELIKFVRVQWRRPQVEWRRRRWGPGPGASMAGSEELGLREDTLRVLAAFLRRGEAAGSPVPTPPRSPAQEEPTDFLSRLRRCLPCSLGRGAAPSESPRPCSLPIRPCYGLEPGPATPDFYALVAQRLEQLVQEQLKSPPSPELQGPPSTEKEAILRRLVALLEEEAEVINQKLASDPALRSKLVRLSSDSFARLVELFCSRDDSSRPSRACP
# modifications: left off: small tags and cut ends
# Tests used:
# [1] = test system: Ink4a/Arf deficient embryonic fibroblasts; experiment: Colony formation of Ink4a/Arf deficient embryonic fibroblasts; assay type: cell-based; conditions: about 300 cells per 6 well plate; vector only about 13
# Protocol: In addition, Ink4a/Arf deficient embryonic fibroblasts were transfected with vector only or a vector encoding a Bcl2L12 polypeptide or Bcl2 polypeptide. Once the cells were transfected, the number of colonies formed in cultures (about 300 cells per 6 well plate) was determined. Expression of Bcl2L12 polypeptide promoted growth of Ink4a/Arf deficient embryonic fibroblasts. […] In a similar experiment, Ink4a/Arf deficient embryonic fibroblasts were co-transfected with a vector encoding H-RasV12 and either a vector only, vector encoding Bcl2L12 polypeptide, or a vector encoding Bcl2 polypeptide. Once the cells were transfected, the number of foci formed per transfection was determined. Expression of Bcl2L12 polypeptide or Bcl2 polypeptide in combination with H-RasV12 expression promoted growth of Ink4a/Arf deficient embryonic fibroblasts (about 1.5 to 2 fold more foci per transfection for cells expressing Bcl2L12 polypeptide or Bcl2 polypeptide compared to control pBabe cells).
# [2] = test system: Ink4a-/-/Arf-/- astrocytes; experiment: Growth of transduced Ink4a-/-/Arf-/- astrocytes under normal and low-serum conditions; assay type: cell-based, mouse; conditions: over-expression, 10% FBS, vs vector only
# Excerpt: The Bcl2L12-V5, R-RAS, and IRF3 nucleic acid sequences were cloned into expression vectors. Controls included expression vectors containing EGFR or Bcl2 nucleic acid sequences. The encoded polypeptides were expressed in primary astrocytes and tested for cell growth, transformation, and apoptosis activities. Primary astrocytes deficient for Ink4a/Arf (e.g., Ink4a^−/−/Arf^−/− astrocytes) were used given the prominence of this tumor suppressor lesion in advanced human gliomas. The following was performed to assess growth characteristics under normal growth conditions. Mouse Ink4a^−/−/Arf^−/− astrocytes were retro-virally transduced with pBabe vector alone; Bcl2L12-V5 nucleic acid; R-RAS nucleic acid; IRF3 nucleic acid; EGFR* nucleic acid; or Bcl2 nucleic acid. After retro-viral infection, transduced mouse Ink4a^−/−/Arf^−/− astrocytes were subjected to puromycin (2 μg/mL) selection for four days and plated at a density of 1×10^5 cells/10 cm dish using 10% FBS-DMEM medium. All transduced Ink4a^−/−/Arf^−/− astrocytes were counted each day for five days to determine cell numbers (mean±S.D.; three independent experiments with each being performed in triplicate).
# The following was performed to assess growth characteristics under low-serum growth conditions. Retro-virally transduced mouse Ink4a^−/−/Arf^−/− astrocytes (1×10^6 cells/10 cm dish) were allowed to attach onto plates in 10% FBS-DMEM medium for five hours. After five hours, the medium was changed to 0.1% FBS-DMEM, and the cells were allowed to grow for three days. After three days in 0.1% FBS, the cells were counted to determine cell numbers (mean±S.D.; three independent experiments with each being performed in triplicate). The number of Ink4a^−/−/Arf^−/− astrocytes infected with pBabe-vector was set to 1.0.
# [3] = test system: Ink4a-/-/Arf-/- astrocytes; experiment: Annexin V staining of STS-treated Ink4a/Arf deficient astrocytes (FACS); assay type: cell-based, mouse; conditions: 100 nM staurosporine one day; control cultures about 17-22 percent
# Protocol: The following experiments were performed to determine whether the Bcl2L12 polypeptide influenced cell survival or apoptosis. Ink4a^−/−/Arf^−/− astrocytes retro-virally infected with vector alone (pBabe) or vector containing Bcl2 nucleic acid, Bcl2L12-V5 nucleic acid, R-RAS nucleic acid, or IRF3 nucleic acid were […] After this one day incubation, the cells were stained with annexin V (Roche). Annexin V-positive cells were determined by FACScan analysis (mean±S.D.; three independent experiments with each being performed in triplicate).
# After STS treatment, the cells were analyzed for apoptosis by assessing annexin V binding and DNA fragmentation using a FACS based analysis.
# [4] = test system: Ink4a-/-/Arf-/- mouse embryo fibroblasts; experiment: Focus formation in cooperation with activated H-Ras in Ink4a-/-/Arf-/- mouse embryo fibroblasts; assay type: cell-based; conditions: cotransfected with H-Ras G12V, vs pBabe
# Protocol: The oncogenic potential of these genes was determined directly through their capacity to cooperate with activated H-RAS to effect the malignant transformation of primary Ink4a^−/−/Arf^−/− cells. Briefly, Ink4a^−/−/Arf^−/− mouse embryo fibroblasts (MEFs) were seeded at 8×10^5 cells/10 cm dish and grown in 10% FBS-DMEM for one day and then cotransfected with 1.5 μg of activated H-Ras^G12V and 1.5 μg of either pBabe, Bcl2, Bcl2L12-V5, R-RAS, or IRF3 nucleic acid using Lipopectamine-plus reagent (Invitrogen). One day after cotransfection, each Ink4a^−/−/ARF^−/− MEF was splitted 1:3 ratio and refed with 10% FBS-DMEM every 3-4 day for ten days. After staining cells with crystal violet solution, foci were counted to determine transformation efficiency (mean±S.D.; three independent experiments with each being done in duplicate). The numbers of foci from cells cotransfected with H-Ras^G12V and pBabe vector were set to 100%.
# In addition, Ink4a/Arf deficient embryonic fibroblasts were transfected with vector only or a vector encoding a Bcl2L12 polypeptide or Bcl2 polypeptide. Once the cells were transfected, the number of colonies formed in cultures (about 300 cells per 6 well plate) was determined. Expression of Bcl2L12 polypeptide promoted growth of Ink4a/Arf deficient embryonic fibroblasts. […] Once the cells were transfected, the number of foci formed per transfection was determined. […]
# caspase-9 = target: T1, caspase-9; experiment: Caspase-9 in vitro cleavage and LEHDase activity assay with 293T cells; assay type: cell-based; conditions: V5 tagged constructs; vector only about 420 RFUs
# Excerpt: To determine if Bcl2L12 polypeptides could-regulate-the activity of caspase-9, a cell-free system was used in which exogenously added dATP and cytochrome c induced the activation of [^35S] labeled in vitro translated caspase-9. […] To confirm the inhibitory effect of Bcl2L12 polypeptides on caspase-9 maturation, 293T cells ectopically expressing Bcl2L12-V5 polypeptides where either subjected to an in vitro cleavage assay or to an activity assay using the caspase-9 specific fluorogenic peptide LEHD.
# In addition, vectors encoding V5 tagged wild-type human Bcl2L12 polypeptide (WT; human amino acid sequence 1-334) and three V5 tagged truncation mutants of human Bcl2L12 (Bcl2L12-ΔBH2 polypeptide, human amino acid sequence 1-310; Bcl2L12-ΔBH2ΔP-r polypeptide, human amino acid sequence 1-267; and Bcl2L12-ΔBH2ΔP-rΔIHD polypeptide, human amino acid sequence 1-167) were made (FIG. 4A). These vectors expressed the appropriately sized polypeptides when translated in vitro or when expressed in 293T cells.
caspase-9 activity (caspase-9),Molecule,number of colonies [1],growth / proliferation under normal growth conditions [2],annexin-V positive cells [3],RAS-induced focus formation increase [4]
,Bcl2: Bcl2 polypeptide expressed from control expression vector [reference compound],about 10 colonies,failed to exhibit a pro-proliferative response,2-3%,
,B1,,failed to exhibit a pro-proliferative response,14-16%,did not exhibit any cooperative activity
about 160 RFUs,B2,,,,
,B3,,moderate increase in proliferation,10-20%,did not exhibit any cooperative activity
about 130 RFUs,B4,,,,
